# Target: Kunitz domain inhibitor KD1 derived from hepatocyte growth factor activator inhibitor-1B (HAI-1B) (UniProt O43278)
# Sequence (O43278 246-303): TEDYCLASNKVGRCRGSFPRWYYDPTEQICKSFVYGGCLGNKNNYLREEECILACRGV
# soluble form of HEPSIN comprising the entire extracellular domain (human HEPSIN Arg45-Leu417, His-tagged), sequence (chain, as listed by the source): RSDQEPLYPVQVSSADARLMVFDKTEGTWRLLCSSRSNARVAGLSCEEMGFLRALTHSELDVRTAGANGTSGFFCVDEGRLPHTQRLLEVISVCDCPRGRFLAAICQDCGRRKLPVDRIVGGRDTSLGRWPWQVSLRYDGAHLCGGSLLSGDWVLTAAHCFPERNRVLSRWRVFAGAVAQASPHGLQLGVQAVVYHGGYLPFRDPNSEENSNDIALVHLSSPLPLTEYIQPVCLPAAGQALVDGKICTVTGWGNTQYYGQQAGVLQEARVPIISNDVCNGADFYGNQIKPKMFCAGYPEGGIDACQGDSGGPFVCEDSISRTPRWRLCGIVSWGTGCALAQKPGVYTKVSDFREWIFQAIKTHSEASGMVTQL
substance,measurement,value
"soluble form of HEPSIN comprising the entire extracellular domain (human HEPSIN Arg45-Leu417, His-tagged)",HEPSIN activity in a chromogenic substrate assay with the para-nitroanilide substrate S2366,completely inhibited HEPSIN activity at a concentration of 50 nM

# From patent US20100021474
